Patent US20180021429A1, “ANTICANCER AGENTS OR ANTIMETASTATIC AGENTS USING FSTL1 AND COMBINATION DRUG THEREOF” (PHARMA FOODS INTERNATIONAL CO., LTD., priority 2015, published 2018)
“Also recorded” adds a separate entry of the source.

T1: FSTL1 (Homo sapiens, UniProt Q12841)
T1 sequence (Q12841 21-308): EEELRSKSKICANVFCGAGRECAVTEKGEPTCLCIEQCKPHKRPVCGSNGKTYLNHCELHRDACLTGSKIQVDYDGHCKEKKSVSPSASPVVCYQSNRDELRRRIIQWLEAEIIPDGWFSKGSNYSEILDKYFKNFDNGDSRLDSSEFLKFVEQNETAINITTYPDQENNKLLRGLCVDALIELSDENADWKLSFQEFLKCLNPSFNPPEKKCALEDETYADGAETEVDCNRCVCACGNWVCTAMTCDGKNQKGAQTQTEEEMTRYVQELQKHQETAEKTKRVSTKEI

B1: #13: chicken-mouse chimeric anti-FSTL1 antibody clone; variable regions SEQ ID NO: 815 (light), 817 (heavy) (antibody, V domains shown)
VH: AVTLDESGGGLQTPGGGLSLVCKASGFTFSSVTMQWVRQAPGKGLEWVASICSGSSTYYGPAVKGRATISRDNGQNTVRLQLNNLRAEDTATYYCAKIVGRGRWSCTSAAYNIDAWGHGTEVIVSS
VL: ASTQPSSVSANPGETVKITCSGGGNNYGWYQQKSPGSAPVTVIYNNNNRPSNIPSRFSGSKSGSTNTLTITGVQAEDEAVYYCGSYDSSSDSGIFGAGTTLTVL
modifications: mouse constant regions
B2: #33: chicken-mouse chimeric anti-FSTL1 antibody clone; variable regions SEQ ID NO: 823 (light), 825 (heavy) (antibody, V domains shown)
VH: AVTLDESGGGLQTPGGGLSLVCKASGFTFSSFNMNWVRQAPGKGLEYVAEISGTGSSTYYGSAVKGRATISRDNGQSTVRLQLNNLRAEDTATYFCARGDGAYSIDAWGHGTEVIVSS
VL: ASTQPSSVSANPGETVEITCSGDSSYYGWFQQKSPGSAPVTVIYDNTNRPSDIPSRFSGSKSGSTATLTITGVRAEDEAVYYCGGYDSSTYDGIFGAGTTLTVL
modifications: mouse constant regions
B3: #6-55: chicken-mouse chimeric anti-FSTL1 antibody clone; variable regions SEQ ID NO: 783 (light), 785 (heavy) (antibody, V domains shown)
VH: AVTLDESGGGLQTPGGALSLVCKGSGFTFTSVTMQWVRQAPGKGLEWVASVCSGSSTYYAPAVKGRATISRDNGQSTVRLQLSNLRPEDTGTYYCAKIAGRARWSCTSAAYNIDAWGHGTEVIVSS
VL: ASTQPSSVSAIPGETVKITCSGGGNNYGWYQQRSPGSAPVTVIYYNDNRPSNIPSRFSGSTSGSTSTLTITGVQADDEAIYYCGSWDSNTDSGIFGAGTTLTVL
modifications: mouse constant regions

Molecular target: T1, FSTL1
Test: Inhibition of induction of MSCs, cancer-associated MSCs and M-MDSCs by FSTL1 in mouse bone marrow cells (Examples 13 to 15)
Type: cell-based
Set-up: purchased R&D Systems, Inc. 1694-FN-050
Experimental: The antibody clone (#6-55, #7, […], #13, or #22) was evaluated for its activity by the same testing method as in Example 13. #6-55 was set as a positive control for activity. […] Mouse bone marrow cells were supplemented with FSTL1 and the predetermined concentration of each antibody and cultured for 8 days. 5×10^4 cells/well were separated from each culture system and evaluated for the ability to differentiate into adipocytes using an adipocyte differentiation reagent included in “Mesenchymal Stem Cell Functional Identification Kit (R&D Systems, Inc., Cat. No. SCO10)”. For the evaluation method, the cells were supplemented with the adipocyte differentiation reagent and cultured for 8 days. Then, adipocytes per culture system were counted under a microscope for evaluation. In the graph, none is depicted in the leftmost bar, and the control antibody is depicted in the second bar from the left followed by the anti-FSLT1 antibody clones. Adipocytes were not confirmed for any of the anti-FSLT1 antibodies. It is understood that the differentiation induction of MSCs serving as the original source is inhibited.
Mouse bone marrow cells (bone marrow cells prepared in the same way as in Example 4) were supplemented with 20 ng/mL (final concentration) of FSTL1 and 20.0, 10.0, 5.0, or 2.5 μg/ml (final concentration) of the rat anti-FSTL1 antibody or #6-55. Also, mouse bone marrow cells were supplemented with 20.0 μg/ml (final concentration) each of their respective control antibodies, a rat IgG2b isotype control (R&D Systems, Inc., Cat. No. MAB0061, clone 141945) and an anti-DNP antibody. The cells were cultured for 8 days, and the inhibitory activity of each antibody against the induction of MSCs, cancer-associated MSCs, and M-MDSCs by FSTL1 was evaluated in the same way as in Example 13 (FIG. 40A). […] The inhibition of regulatory T cells shown in Patent Literature 1 (WO2009/028411) is presumably a consequence mediated by the inhibition of MSC induction. […]

[1] = Example 14, #6-55 as positive control

Molecule | inhibitory activity against the induction of MSCs, cancer-associated MSCs, and M-MDSCs by FSTL1 [1] | inhibitory activity against the induction of MSCs, cancer-associated MSCs, and M-MDSCs by FSTL1 (Example 15, FSTL1 20 ng/mL, antibody 20.0, 10.0, 5.0, or 2.5 μg/ml, dose dependence not confirmed)
B1 | inhibitory activity equivalent to or higher than that of the positive control | –
B2 | inhibitory activity equivalent to or higher than that of the positive control | –
B3 | – | at the same level; also recorded: slightly superior
